These results are taken from PMC4004960 (Cancer cell, 2014).

Ends that are not written are not given here.

As a reminder, the Ki is a measure of affinity in units of concentration, obtained from inhibition or displacement.

The target in the experiment is BRD4-BD2 (recombinant, NMR and fluorescence anisotropy) (UniProt O60885 333-460). As to the kind of experiment: fluorescence polarisation. Background: Fluorescence polarisation rises when a labelled molecule tumbles more slowly, as on binding a larger partner.

As for SPAQGK(Ac)RGK(Ac)KSA (peptide, UniProt Q15672 68-79, looked up) [Twist-K73ac/K76ac peptide (residues 68-79)], the Ki was 800 µM.
